Patent US20110263454A1, “Methods of Identifying Functional Characteristics of Promoters, Transcription Modifying Proteins and Transcription Modulating Agents” (Salk Institute for Biological Studies, priority 2008, published 2011)

Experiments:
hG6PD promoter = test: NHR-promoter luciferase screen, hG6PD promoter; type: cell-based, human; conditions: for Luc. act., normalized to lacZ / Normalized Luc. act., normalized to control: G6PD promoter reporter, co-transfected HR, without or with its ligand; for Normalized Luc. act., normalized to control: relative to control; for luciferase activity normalized to lacZ activity and to a control, hG6PD: hG6PD promoter-luciferase, CV-1 cells, NHR +/- ligand, control = 1.00
Procedure: (§1) The use, feasibility, and reproducibility of the functional NHR-promoter screen in a 48-well format have been tested validated. Briefly, there were co-expressed 50 ng of each NHR/NHR homodimer or NHR/RXR heterodimer with 100 ng promoter/luciferase construct and 50 ng of LacZ (as a control for transfection efficiency) in CV-1 cells using Fugene HD (Roche) as a transfection reagent (alternatively or additionally, a CMV-YFP construct can be used as a transfection control). Each of the nuclear hormone receptors that were used in these experiments was cloned into a pcDNA3.1 vector and comprised a C-terminally linked V5H6 tag. Twenty-four hours after transfection, appropriate ligands were added, where applicable, (see Table 5 for various ligands and concentrations and after 48 hrs, samples were assayed for luciferase and LacZ activity. To measure for luciferase activity 15 ul of sample was added to 30 ul of luciferase buffer (20 mM tricine, 1.07 mM MgCarbonate, 2.67 mM MgSulfate, 0.1 mM Naz-EDTA, 5 mM DTT, 5 mM ATP, 0.15 mg/ml CoA, 0.5 mM Luciferin), mixed briefly, and run in a Perkin Elmer Victor 5 luminometer. Thus, the functional NHR-promoter screen was used to observe the transcriptional activity of 29 promoters from various physiological pathways including inflammation, lipid and sugar metabolism, cholesterol transport, xenobiotic metabolism, and circadian rhythm.
(§2) The promoters that facilitate transcription of the indicated gene products that were tested using the protocols described herein are listed in the first row of the table. The nuclear hormone receptors and, where applicable, ligands that were assayed for their transcriptional effects on the promoters are listed in the first column of the table. The data represent the luciferase activity of each sample normalized to both the lacZ activity of that sample and to a control, e.g., no NHR or ligand, as customary in the art. As described previously, these normalizations allow the transcriptional activity of each reporter cell to be compared to other samples.
(§3) Tables 7-40 show the transcriptional effects of the hormone receptors, and, where applicable, ligands (orphan receptors are screened without ligand), on each individual promoter. […] The control data of each table are shown in their last rows.

hPOMC promoter = test: NHR-promoter luciferase screen, hPOMC promoter; type: cell-based, human; conditions: for Luc. act., normalized to lacZ / Normalized Luc. act., normalized to control: hPOMC promoter, HR/ligand component; for hPOMC promoter reporter activity: transcription factor +/- ligand, control = 1.00
Procedure: as §1, §2, §3

mPOMC promoter = test: NHR-promoter luciferase screen, mPOMC promoter; type: cell-based, mouse; conditions: for Results of assays of transcription factor (+/- ligand) with mPOMC: Table 6d, luciferase activity relative to control (control = 1.00); for Luc. act., normalized to lacZ / Normalized Luc. act., normalized to control: mPOMC promoter, HR component with or without ligand; for Normalized Luc. act., normalized to control: relative to control
Procedure: as §1, §2, §3

RevErba promoter = test: NHR-promoter luciferase screen, RevErba (RVRa) promoter; type: cell-based; set-up: key to mRevErba promoter reporter activity / Normalized Luc. act., normalized to control: luciferase activity normalized to lacZ and to control (no NHR/ligand); conditions: for Luc. act., normalized to lacZ / Normalized Luc. act., normalized to control: HR component without or with ligand; for normalized Luc. act. on a logarithmic scale (column without head, Table 33): log10 of activity normalized to control; for mRevErba promoter reporter activity: transcription factor +/- ligand, control = 1.00
Procedure: Briefly, there were co-expressed 50 ng of each NHR/NHR homodimer or NHR/RXR heterodimer with 100 ng promoter/luciferase construct and 50 ng of LacZ (as a control for transfection efficiency) in CV-1 cells using Fugene HD (Roche) as a transfection reagent (alternatively or additionally, a CMV-YFP construct can be used as a transfection control). Each of the nuclear hormone receptors that were used in these experiments was cloned into a pcDNA3.1 vector and comprised a C-terminally linked V5H6 tag.
as §2
The control data of each table are shown in their last rows.

hPPARg1 promoter = test: NHR-promoter luciferase screen, hPPARg1 promoter; type: cell-based, human; conditions: for Luc. act., normalized to lacZ / Normalized Luc. act., normalized to control: PPARG1 promoter, hormone receptor with or without its ligand; for Normalized Luc. act., normalized to control: relative to control; for Results of assays of transcription factor (+/- ligand) with hPPARg1: Table 6d, luciferase activity relative to control (control = 1.00)
Procedure: as §1, §2, §3

B1: RARa: Retinoic acid receptor α (NR1B1), nuclear hormone receptor cDNA driver (protein, UniProt P10276 1-462, looked up)
Retinoic acid receptor alpha: MASNSSSCPTPGGGHLNGYPVPPYAFFFPPMLGGLSPPGALTTLQHQLPVSGYSTPSPATIETQSSSSEEIVPSPPSPPPLPRIYKPCFVCQDKSSGYHYGVSACEGCKGFFRRSIQKNMVYTCHRDKNCIINKVTRNRCQYCRLQKCFEVGMSKESVRNDRNKKKKEVPKPECSESYTLTPEVGELIEKVRKAHQETFPALCQLGKYTTNNSSEQRVSLDIDLWDKFSELSTKCIIKTVEFAKQLPGFTTLTIADQITLLKAACLDILILRICTRYTPEQDTMTFSDGLTLNRTQMHNAGFGPLTDLVFAFANQLLPLEMDDAETGLLSAICLICGDRQDLEQPDRVDMLQEPLLEALKVYVRKRRPSRPHMFPKMLMKITDLRSISAKGAERVITLKMEIPGSMPPLIQEMLENSEGLDTLSGQPGGGGRDGGGLAPPPGSCSPSLSPSSNRSSPATHSP
Question: How did the “Luc. act., normalized to lacZ” value (hG6PD promoter) turn out when B1 was run?
Answer: 57.1

Question: What about the “Normalized Luc. act., normalized to control” value (hG6PD promoter) of the same molecule?
Answer: 1.5

Question: What about the “luciferase activity normalized to lacZ activity and to a control, hG6PD” value (hG6PD promoter) of the same molecule?
Answer: 1.53

Question: And the “Luc. act., normalized to lacZ” value (hPOMC promoter)?
Answer: 3.2

Question: What about the “Normalized Luc. act., normalized to control” value (hPOMC promoter) of the same molecule?
Answer: 0.7

Question: What about the “hPOMC promoter reporter activity” value (hPOMC promoter) of the same molecule?
Answer: 0.74

Question: And the “Results of assays of transcription factor (+/- ligand) with mPOMC” value (mPOMC promoter)?
Answer: 1.43

Question: And the “Luc. act., normalized to lacZ” value (mPOMC promoter)?
Answer: 98.5

Question: And the “Normalized Luc. act., normalized to control” value (mPOMC promoter)?
Answer: 1.4

Question: And the “Luc. act., normalized to lacZ” value (RevErba promoter; RVRa promoter)?
Answer: 34.6

Question: And the “Normalized Luc. act., normalized to control” value (RevErba promoter; RVRa promoter)?
Answer: 1.2

Question: What about the “normalized Luc. act. on a logarithmic scale (column without head, Table 33)” value (RevErba promoter; RVRa promoter) of the same molecule?
Answer: 0.09

Question: And the “mRevErba promoter reporter activity” value (RevErba promoter)?
Answer: 1.24

Question: And the “Luc. act., normalized to lacZ” value (hPPARg1 promoter)?
Answer: 86.6

Question: And the “Normalized Luc. act., normalized to control” value (hPPARg1 promoter)?
Answer: 1.3

Question: And the “Results of assays of transcription factor (+/- ligand) with hPPARg1” value (hPPARg1 promoter)?
Answer: 1.26

B2: RVRb: Rev-Erb β (NR1D2, alternative name RVR), cDNA driver (protein, UniProt Q14995 1-579, looked up)
Nuclear receptor subfamily 1 …: MEVNAGGVIAYISSSSSASSPASCHSEGSENSFQSSSSSVPSSPNSSNSDTNGNPKNGDLANIEGILKNDRIDCSMKTSKSSAPGMTKSHSGVTKFSGMVLLCKVCGDVASGFHYGVHACEGCKGFFRRSIQQNIQYKKCLKNENCSIMRMNRNRCQQCRFKKCLSVGMSRDAVRFGRIPKREKQRMLIEMQSAMKTMMNSQFSGHLQNDTLVEHHEQTALPAQEQLRPKPQLEQENIKSSSPPSSDFAKEEVIGMVTRAHKDTFMYNQEQQENSAESMQPQRGERIPKNMEQYNLNHDHCGNGLSSHFPCSESQQHLNGQFKGRNIMHYPNGHAICIANGHCMNFSNAYTQRVCDRVPIDGFSQNENKNSYLCNTGGRMHLVCPMSKSPYVDPHKSGHEIWEEFSMSFTPAVKEVVEFAKRIPGFRDLSQHDQVNLLKAGTFEVLMVRFASLFDAKERTVTFLSGKKYSVDDLHSMGAGDLLNSMFEFSEKLNALQLSDEEMSLFTAVVLVSADRSGIENVNSVEALQETLIRALRTLIMKNHPNEASIFTKLLLKLPDLRSLNNMHSEELLAFKVHP
Question: For B2, which “Luc. act., normalized to lacZ” value (hG6PD promoter) is on record?
Answer: 55.5

Question: What about the “Normalized Luc. act., normalized to control” value (hG6PD promoter) of the same molecule?
Answer: 1.5

Question: And the “luciferase activity normalized to lacZ activity and to a control, hG6PD” value (hG6PD promoter)?
Answer: 1.48

Question: What about the “Luc. act., normalized to lacZ” value (hPOMC promoter) of the same molecule?
Answer: 2.8

Question: And the “Normalized Luc. act., normalized to control” value (hPOMC promoter)?
Answer: 0.7

Question: What about the “hPOMC promoter reporter activity” value (hPOMC promoter) of the same molecule?
Answer: 0.66

Question: What about the “Results of assays of transcription factor (+/- ligand) with mPOMC” value (mPOMC promoter) of the same molecule?
Answer: 0.85

Question: And the “Luc. act., normalized to lacZ” value (mPOMC promoter)?
Answer: 58.4

Question: What about the “Normalized Luc. act., normalized to control” value (mPOMC promoter) of the same molecule?
Answer: 0.8

Question: And the “Luc. act., normalized to lacZ” value (RevErba promoter; RVRa promoter)?
Answer: 2.06

Question: What about the “Normalized Luc. act., normalized to control” value (RevErba promoter; RVRa promoter) of the same molecule?
Answer: 0.1

Question: And the “negative reciprocal of normalized Luc. act. (fold repression; Table 33)” value (RevErba promoter; RVRa promoter, given only where activity is below control)?
Answer: −13.5606

Question: And the “normalized Luc. act. on a logarithmic scale (column without head, Table 33)” value (RevErba promoter; RVRa promoter)?
Answer: −1.13

Question: What about the “mRevErba promoter reporter activity” value (RevErba promoter) of the same molecule?
Answer: 0.07

Question: What about the “Luc. act., normalized to lacZ” value (hPPARg1 promoter) of the same molecule?
Answer: 55.5

Question: What about the “Normalized Luc. act., normalized to control” value (hPPARg1 promoter) of the same molecule?
Answer: 0.8

Question: What about the “Results of assays of transcription factor (+/- ligand) with hPPARg1” value (hPPARg1 promoter) of the same molecule?
Answer: 0.81
